This is an account of results in the supplement of paper PMC5998384.

The test system of data set [1] is HeLa Kyoto. In words: solubility change mitosis vs G1/S (difference of NP-40 vs SDS log2 ratios) (log2 ratio difference); higher = more soluble in mitosis.
Data set [2] has as its system HeLa Kyoto. As to the kind of experiment: thermal stability score vs G1/S (z-score of summed log2 fold changes over temperatures); higher = more thermally stable than in G1/S.
Data set [3] deals with HeLa Kyoto. In words: melting temperature (median over replicates), in situ; higher = more thermally stable.
The subject of data set [4] is HeLa Kyoto. In words: solubility in G1/S (NP-40 vs SDS abundance) (log2 ratio); higher = more soluble. Particulars: cell cycle stage: G1/S.
Setting [5] is: cell cycle stage: early G1 (4.5 h after nocodazole release).
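Wherever melting temperature (median over replicates), in situ is given: HeLa Kyoto cells synchronized by double thymidine or nocodazole block, proteins quantified by TMT10plex mass spectrometry, three independent biological replicates.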
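Wherever solubility change mitosis vs G1/S (difference of NP-40 vs SDS log2 ratios) is given: synchronized HeLa Kyoto cells (double thymidine block for G1/S, nocodazole release for mitosis), protein amounts in NP-40 versus SDS lysates quantified by mass spectrometry, three biological replicates.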
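Wherever solubility in G1/S (NP-40 vs SDS abundance) is given: HeLa Kyoto cells arrested at G1/S by double thymidine block, proteins quantified by TMT10plex mass spectrometry in mild NP-40 versus SDS extracts, three biological replicates.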
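Wherever thermal stability score vs G1/S (z-score of summed log2 fold changes over temperatures) is given: synchronized HeLa Kyoto cells, proteins quantified by TMT10plex mass spectrometry, three biological replicates, mitosis taken 0.5 h after nocodazole release, G1/S directly after double thymidine block.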

Regarding “MAAMETETAPLTLESLPTDPLLLILSFLDYRDLINCCYVSRRLSQLSSHDPLWRRHCKKYWLISEEEKTQKNQCWKSLFIDTYSDVGRYIDHYAAIKKAWDDLKKYLEPRCPRMVLSLKEGAREEDLDAVEAQIGCKLPDDYRCSYRIHNGQKLVVPGLLGSMALSNHYRSEDLLDVDTAAGGFQQRQGLKYCLPLTFCIHTGLSQYIAVEAAEGRNKNEVFYQCPDQMARNPAAIDMFIIGATFTDWFTSYVKNVVSGGFPIIRDQIFRYVHDPECVATTGDITVSVSTSFLPELSSVHPPHYFFTYRIRIEMSKDALPEKACQLDSRYWRITNAKGDVEEVQGPGVVGEFPIISPGRVYEYTSCTTFSTTSGYMEGYYTFHFLYFKDKIFNVAIPRFHMACPTFRVSIARLEMGPDEYEEMEEEEEEEEEEDEDDDSADMDESDEDDEEERRRRVFDVPIRRRRCSRLF [FBXO3]”, the “solubility change mitosis (log2)” value in data set [1] was -0.0407. Further, the thermal stability score in data set [2] (setting [5]) worked out at 0.236; in data set [2] (cell cycle stage: mitosis), 0.497. For the same sequence, the values for the melting temperature in data set [3] (cell cycle stage: G1/S) and in data set [3] (cell cycle stage: mitosis) were 53.9 °C and 53.3 °C, respectively. Further, the “solubility in G1/S (log2)” value in data set [4] was -0.00208.
Regarding “MAAPALGLVCGRCPELGLVLLLLLLSLLCGAAGSQEAGTGAGAGSLAGSCGCGTPQRPGAHGSSAAAHRYSREANAPGPVPGERQLAHSKMVPIPAGVFTMGTDDPQIKQDGEAPARRVTIDAFYMDAYEVSNTEFEKFVNSTGYLTEAEKFGDSFVFEGMLSEQVKTNIQQAVAAAPWWLPVKGANWRHPEGPDSTILHRPDHPVLHVSWNDAVAYCTWAGKRLPTEAEWEYSCRGGLHNRLFPWGNKLQPKGQHYANIWQGEFPVTNTGEDGFQGTAPVDAFPPNGYGLYNIVGNAWEWTSDWWTVHHSVEETLNPKGPPSGKDRVKKGGSYMCHRSYCYRYRCAARSQNTPDSSASNLGFRCAADRLPTMD [SUMF1]”, in data set [1], the “solubility change mitosis (log2)” value amounted to 0.0674. For the same sequence, the thermal stability score in data set [2] (setting [5]) was -1.37; in data set [2] (cell cycle stage: mitosis), 2.23. In addition, the results for the melting temperature in data set [3] (cell cycle stage: G1/S) and in data set [3] (cell cycle stage: mitosis) were 53.7 °C and 55.1 °C, respectively. In addition, the “solubility in G1/S (log2)” value in data set [4] amounted to 0.277.
For the sequence “MAAPAPGLISVFSSSQELGAALAQLVAQRAACCLAGARARFALGLSGGSLVSMLARELPAAVAPAGPASLARWTLGFCDERLVPFDHAESTYGLYRTHLLSRLPIPESQVITINPELPVEEAAEDYAKKLRQAFQGDSIPVFDLLILGVGPDGHTCSLFPDHPLLQEREKIVAPISDSPKPPPQRVTLTLPVLNAARTVIFVATGEGKAAVLKRILEDQEENPLPAALVQPHTGKLCWFLDEAAARLLTVPFEKHSTL [PGLS]”, the “solubility change mitosis (log2)” value in data set [1] was found to be 0.237. Further, the thermal stability score in data set [2] (setting [5]) was -2.51; in data set [2] (cell cycle stage: mitosis), -2.63. The melting temperature came to 54.8 °C in data set [3] (cell cycle stage: G1/S) and 55.2 °C in data set [3] (cell cycle stage: mitosis). The “solubility in G1/S (log2)” value in data set [4] was found to be 0.254.
On to “MAAPAQPKKIVAPTVSQINAEFVTQLACKYWAPHIKKKSPFDIKVIEDIYEKEIVKSRFAIRKIMLLEFSQYLENYLWMNYSPEVSSKAYLMSICCMVNEKFRENVPAWEIFKKKPDHFPFFFKHILKAALAETDGEFSLHEQTVLLLFLDHCFNSLEVDLIRSQVQQLISLPMWMGLQLARLELELKKTPKLRKFWNLIKKNDEKMDPEAREQAYQERRFLSQLIQKFISVLKSVPLSEPVTMDKVHYCERFIELMIDLEALLPTRRWFNTILDDSHLLVHCYLSNLVRREEDGHLFSQLLDMLKFYTGFEINDQTGNALTENEMTTIHYDRITSLQRAAFAHFPELYDFALSNVAEVDTRESLVKFFGPLSSNTLHQVASYLCLLPTLPKNEDTTFDKEFLLELLVSRHERRISQIQQLNQMPLYPTEKIIWDENIVPTEYYSGEGCLALPKLNLQFLTLHDYLLRNFNLFRLESTYEIRQDIEDSVSRMKPWQSEYGGVVFGGWARMAQPIVAFTVVEVAKPNIGENWPTRVRADVTINLNVRDHIKDEWEGLRKHDVCFLITVRPTKPYGTKFDRRRPFIEQVGLVYVRGCEIQGMLDDKGRVIEDGPEPRPNLRGESRTFRVFLDPNQYQQDMTNTIQNGAEDVYETFNIIMRRKPKENNFKAVLETIRNLMNTDCVVPDWLHDIILGYGDPSSAHYSKMPNQIATLDFNDTFLSIEHLKASFPGHNVKVTVEDPALQIPPFRITFPVRSGKGKKRKDADVEDEDTEEAKTLIVEPHVIPNRGPYPYNQPKRNTIQFTHTQIEAIRAGMQPGLTMVVGPPGTGKTDVAVQIISNIYHNFPEQRTLIVTHSNQALNQLFEKIMALDIDERHLLRLGHGEEELETEKDFSRYGRVNYVLARRIELLEEVKRLQKSLGVPGDASYTCETAGYFFLYQVMSRWEEYISKVKNKGSTLPDVTEVSTFFPFHEYFANAPQPIFKGRSYEEDMEIAEGCFRHIKKIFTQLEEFRASELLRSGLDRSKYLLVKEAKIIAMTCTHAALKRHDLVKLGFKYDNILMEEAAQILEIETFIPLLLQNPQDGFSRLKRWIMIGDHHQLPPVIKNMAFQKYSNMEQSLFTRFVRVGVPTVDLDAQGRARASLCNLYNWRYKNLGNLPHVQLLPEFSTANAGLLYDFQLINVEDFQGVGESEPNPYFYQNLGEAEYVVALFMYMCLLGYPADKISILTTYNGQKHLIRDIINRRCGNNPLIGRPNKVTTVDRFQGQQNDYILLSLVRTRAVGHLRDVRRLVVAMSRARLGLYIFARVSLFQNCFELTPAFSQLTARPLHLHIIPTEPFPTTRKNGERPSHEVQIIKNMPQMANFVYNMYMHLIQTTHHYHQTLLQLPPAMVEEGEEVQNQETELETEEEAMTVQADIIPSPTDTSCRQETPAFQTDTTPSETGATSTPEAIPALSETTPTVVGAVSAPAEANTPQDATSAPEETK [AQR]”, for which the “solubility change mitosis (log2)” value in data set [1] worked out at 0.0502. In addition, the thermal stability score in data set [2] (setting [5]) was found to be 0.352; in data set [2] (cell cycle stage: mitosis), 2.51. In addition, the melting temperature in data set [3] (cell cycle stage: G1/S) came to 48 °C; in data set [3] (cell cycle stage: mitosis) it was 50 °C. Further, the “solubility in G1/S (log2)” value in data set [4] was -0.435.
Regarding “MAAPEEHDSPTEASQPIVEEEETKTFKDLGVTDVLCEACDQLGWTKPTKIQIEAIPLALQGRDIIGLAETGSGKTGAFALPILNALLETPQRLFALVLTPTRELAFQISEQFEALGSSIGVQSAVIVGGIDSMSQSLALAKKPHIIIATPGRLIDHLENTKGFNLRALKYLVMDEADRILNMDFETEVDKILKVIPRDRKTFLFSATMTKKVQKLQRAALKNPVKCAVSSKYQTVEKLQQYYIFIPSKFKDTYLVYILNELAGNSFMIFCSTCNNTQRTALLLRNLGFTAIPLHGQMSQSKRLGSLNKFKAKARSILLATDVASRGLDIPHVDVVVNFDIPTHSKDYIHRVGRTARAGRSGKAITFVTQYDVELFQRIEHLIGKKLPGFPTQDDEVMMLTERVAEAQRFARMELREHGEKKKRSREDAGDNDDTEGAIGVRNKVAGGKMKKRKGR [DDX47]”, in data set [1], the “solubility change mitosis (log2)” value was determined as 0.607. The values for the thermal stability score in data set [2] (setting [5]) and in data set [2] (cell cycle stage: mitosis) were 0.865 and 1.97, respectively. Further, the figures for the melting temperature in data set [3] (cell cycle stage: G1/S) and in data set [3] (cell cycle stage: mitosis) were 50.9 °C and 51.3 °C, respectively. Moreover, in data set [4], the “solubility in G1/S (log2)” value is -1.22.
